# Biological target: T1, Human PD-1 (AcroBiosystems) (human, UniProt Q15116 25-167, limits assumed)
# T1 construct: Bought recombinant protein, amine-coupled to the SPR chip
# Experiment: SPR (ProteOn XPR), human PD-1 amine-coupled on GLC chip, antibody as analyte, Langmuir model
# Description: Human PD-1 (AcroBiosystems) was directly immobilized onto the GLC Chip (ProteOn) using amine-coupling method to obtain a ligand immobilization level of about 500 RU. 10 mM Phosphate Buffered Saline (PBS) (10mM phosphate buffer, pH 7.4, 300 mM NaCl, 0.005% Surfactant P20) was used as the running buffer to carry out the kinetic measurements. All the one step purified antibody samples were diluted in running buffer described above at a suitable concentration in series of concentrations from 10 nM to 0.09 nM. These samples were injected over the chip at a flow rate of 50 μL/min with an association time of 300 s and dissociation time of 1800s. After each sample run, the chip surface was regenerated with 10mM Glycine Buffer pH 1.5 for 18 sec at a flow rate of 100 μL/min.
# KD values (Kinetic constants) were determined as the ratio of dissociation rate (kd) to association rate (ka), i.e. KD =kd/ka using ProteOn manager software v3.1.0.6.
# T1 sequence (Q15116 25-167 limits assumed): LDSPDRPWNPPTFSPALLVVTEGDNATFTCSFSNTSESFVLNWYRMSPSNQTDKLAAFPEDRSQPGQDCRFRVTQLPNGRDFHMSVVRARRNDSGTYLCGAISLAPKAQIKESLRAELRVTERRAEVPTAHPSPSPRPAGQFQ
Binder,Kd,koff,kon
"N7NL (antibody, human IgG4 S228P, kappa, V domains shown, Full-length IgG4 from the pZRCIII hyg.IgG4 vector) VH: QVQLVESGGGVVQPGRSLRLDCKASGITFSNSGMHWVRQAPGKGLEWVAVIWYDGSKRYYADSVKGRFTISRDNSKNTLFLQMNSLRAEDTAVYYCATNSDYWGQGTLVTVSS VL: EIVLTQSPATLSLSPGERATLSCRASQSVSSYLAWYQQKPGQAPRLLIYDASNRATGIPARFSGSGSGTDFTLTISSLEPEDFAVYYCQQSSNWPRTFGQGTKVEIKR",0.0491 nM,9.54e-05 s⁻¹,1.95e+06 M⁻¹ s⁻¹
"N5NL (antibody, human IgG4 S228P, kappa, V domains shown, Full-length IgG4 from the pZRCIII hyg.IgG4 vector. 'NSNL' in the text is an OCR form of N5NL; also called NSNL) VH: QVQLVESGGGVVQPGRSLRLDCKASGITFSNSGMHWVRQAPGKGLEWVAVIWYDGSKRYYADSVKGRFTISRDNSKNTLFLQMNSLRAEDTAVYYCATNSDFWGQGTLVTVSS VL: EIVLTQSPATLSLSPGERATLSCRASQSVSSYLAWYQQKPGQAPRLLIYDASNRATGIPARFSGSGSGTDFTLTISSLEPEDFAVYYCQQSSNWPRTFGQGTKVEIKR",0.075 nM,0.000151 s⁻¹,2.03e+06 M⁻¹ s⁻¹
IP-H4L1 (IgG4) (antibody) heavy: not shown light: EIVLTQSPATLSLSPGERATLSCRASKGVSTSGYSYLHWYQQKPGQAPRLLIYLASYLESGVPARFSGSGSGTDFTLTISSLEPEDFAVYYCQHSRDLPLTFGGGTKVEIKRTVAAPSVFIFPPSDEQLKSGTASVVCLLNNFYPREAKVQWKVDNALQSGNSQESVTEQDSKDSTYSLSSTLTLSKADYEKHKVYACEVTHQGLSSPVTKSFNRGEC,0.0286 nM,5.36e-05 s⁻¹,1.87e+06 M⁻¹ s⁻¹
IP-H4L1 (IgG1) (antibody) heavy: not shown light: EIVLTQSPATLSLSPGERATLSCRASKGVSTSGYSYLHWYQQKPGQAPRLLIYLASYLESGVPARFSGSGSGTDFTLTISSLEPEDFAVYYCQHSRDLPLTFGGGTKVEIKRTVAAPSVFIFPPSDEQLKSGTASVVCLLNNFYPREAKVQWKVDNALQSGNSQESVTEQDSKDSTYSLSSTLTLSKADYEKHKVYACEVTHQGLSSPVTKSFNRGEC,0.0248 nM,5.21e-05 s⁻¹,2.12e+06 M⁻¹ s⁻¹
"IP-H4.36L1 (antibody, human IgG4 S228P, kappa, V domains shown) VH: QVQLVQSGVEVKKPGASVKVSCKASGYTFTTYYIYWVRQAPGQGLEWMGGVNPSNGGTNYNQNYKNRVTLTTDSSTTTAYMELKSLQFDDTAVYYCARRDYRYDMGFDYWGQGTTVTVSS VL: EIVLTQSPATLSLSPGERATLSCRASKGVSTSGYSYLHWYQQKPGQAPRLLIYLASYLESGVPARFSGSGSGTDFTLTISSLEPEDFAVYYCQHSRDLPLTFGGGTKVEIKR",0.0317 nM,6.2e-05 s⁻¹,1.96e+06 M⁻¹ s⁻¹

# More lines, in order of falling Kd, values ahead:
Kd,koff,kon,Binder
0.0826 nM,0.000154 s⁻¹,1.86e+06 M⁻¹ s⁻¹,"N6NL (antibody, human IgG4 S228P, kappa, V domains shown, Full-length IgG4 from the pZRCIII hyg.IgG4 vector) VH: QVQLVESGGGVVQPGRSLRLDCKASGITFSNSGMHWVRQAPGKGLEWVAVIWYDGSKRYYADSVKGRFTISRDNSKNTLFLQMNSLRAEDTAVYYCATNSDHWGQGTLVTVSS VL: EIVLTQSPATLSLSPGERATLSCRASQSVSSYLAWYQQKPGQAPRLLIYDASNRATGIPARFSGSGSGTDFTLTISSLEPEDFAVYYCQQSSNWPRTFGQGTKVEIKR"
0.0409 nM,6.28e-05 s⁻¹,1.54e+06 M⁻¹ s⁻¹,"IP-H4.19L1 (antibody, human IgG4 S228P, kappa, V domains shown) VH: QVQLVQSGVEVKKPGASVKVSCKASGYTFTTYYIYWVRQAPGQGLEWMGGVNPSNSGTNYNENYKNRVTLTTDSSTTTAYMELKSLQFDDTAVYYCARRDYRYDMGFDYWGQGTTVTVSS VL: EIVLTQSPATLSLSPGERATLSCRASKGVSTSGYSYLHWYQQKPGQAPRLLIYLASYLESGVPARFSGSGSGTDFTLTISSLEPEDFAVYYCQHSRDLPLTFGGGTKVEIKR"
0.0082 nM,1.37e-05 s⁻¹,1.67e+06 M⁻¹ s⁻¹,"IP-H4.2L1 (antibody, human IgG4 S228P, kappa, V domains shown) VH: QVQLVQSGVEVKKPGASVKVSCKASGYTFTTYYIYWVRQAPGQGLEWMGGVNPSNGGTNYNENYKNRVTLTTDSSTTTAYMELKSLQFDDTAVYYCARRDYRYDMGYDYWGQGTTVTVSS VL: EIVLTQSPATLSLSPGERATLSCRASKGVSTSGYSYLHWYQQKPGQAPRLLIYLASYLESGVPARFSGSGSGTDFTLTISSLEPEDFAVYYCQHSRDLPLTFGGGTKVEIKR"
